According to patent US20120021995A1 (published 2012):

T1: recombinant human TRAIL R1 (DR4)/Fc chimera (human, UniProt O00220 24-239)
T1 construct: bought (R&D Systems); not shown: Fc of the bought chimera (R&D Systems)
T1 sequence: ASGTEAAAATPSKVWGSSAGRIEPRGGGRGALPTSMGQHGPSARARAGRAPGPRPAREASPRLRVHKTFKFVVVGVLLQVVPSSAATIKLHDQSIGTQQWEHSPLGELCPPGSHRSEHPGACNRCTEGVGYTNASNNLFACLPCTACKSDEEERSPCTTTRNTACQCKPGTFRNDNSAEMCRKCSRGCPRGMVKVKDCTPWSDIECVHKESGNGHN

B1: 029-15.B3D (designed binder)
chain: EPPTQKPKKIVNAKKDVVNTKMFEELKSRLDTLAQEVALLKEQQALQTVCLKGTKVHMKCFLAFTQTKTFHEASEDCISRGGTLSTPQTGSENDALYEYLRQSVGNEAEIWLGLNELRTDGLWVDMTGARIAYKNWETEITAQPDGGVMRRSENCAVLSGAANGKWFDKRCRDQLPYICQFGIV
notes: ATRIMER; also called 9b3d
B2: 029-15.B9F (designed binder)
chain: EPPTQKPKKIVNAKKDVVNTKMFEELKSRLDTLAQEVALLKEQQALQTVCLKGTKVHMKCFLAFTQTKTFHEASEDCISRGGTLSTPQTGSENDALYEYLRQSVGNEAEIWLGLNKRVWYRGWVDMTGARIAYKNWETEITAQPDGGMRRRRENCAVLSGAANGKWFDKRCRDQLPYICQFGIV
notes: ATRIMER; also called 2a1a
B3: 119p83P1C11 (designed binder)
chain: ALQTVCLKGTKVHMKCFLAFTQTKTFHEASEDCISRGGTLSTPQTGSENDALYEYLRQSVGNEAEIWLGLNGWLEGVGWVDMTGARIAYKNWAMHYYWQPDGGWPFSNENCAVLSGAANGKWFDKRCRDQLPYICQFGIV
notes: on phage
B4: 119p83P1G12 (designed binder)
chain: ALQTVCLKGTKVHMKCFLAFTQTKTFHEASEDCISRGGTLSTPQTGSENDALYEYLRQSVGNEAEIWLGLNGWLEGVGWVDMTGARIAYKNWGSYGPFQPDGGWPFSNENCAVLSGAANGKWFDKRCRDQLPYICQFGIV
notes: on phage
B5: 119p83P1F12 (designed binder)
chain: ALQTVCLKGTKVHMKCFLAFTQTKTFHEASEDCISRGGTLSTPQTGSENDALYEYLRQSVGNEAEIWLGLNGWLEGVGWVDMTGARIAYKNWFIPADRQPDGGWPFSNENCAVLSGAANGKWFDKRCRDQLPYICQFGIV
notes: on phage
B6: 119p83P1H8 (designed binder)
chain: ALQTVCLKGTKVHMKCFLAFTQTKTFHEASEDCISRGGTLSTPQTGSENDALYEYLRQSVGNEAEIWLGLNGWLEGVGWVDMTGARIAYKNWGGSISAQPDGGWPFSNENCAVLSGAANGKWFDKRCRDQLPYICQFGIV
notes: on phage
B7: 119p94P1E10 (designed binder)
chain: ALQTVCLKGTKVHMKCFLAFTQTKTFHEASEDCISRGGTLSTPQTGSENDALYEYLRQSVGNEAEIWLGLNGWLEGVGWVDMTGARIAYKNWRVPSLRQPDGGWPFSNENCAVLSGAANGKWFDKRCRDQLPYICQFGIV
notes: on phage
B8: 119p94P1H10 (designed binder)
chain: ALQTVCLKGTKVHMKCFLAFTQTKTFHEASEDCISRGGTLSTPQTGSENDALYEYLRQSVGNEAEIWLGLNGWLEGVGWVDMTGARIAYKNWSTAQNGQPDGGWPFSNENCAVLSGAANGKWFDKRCRDQLPYICQFGIV
notes: on phage
B9: 119p94P1B2 (designed binder)
chain: ALQTVCLKGTKVHMKCFLAFTQTKTFHEASEDCISRGGTLSTPQTGSENDALYEYLRQSVGNEAEIWLGLNGWLEGVGWVDMTGARIAYKNWWFPTLSQPDGGWPFSNENCAVLSGAANGKWFDKRCRDQLPYICQFGIV
notes: on phage
B10: 119p94P1D2 (designed binder)
chain: ALQTVCLKGTKVHMKCFLAFTQTKTFHEASEDCISRGGTLSTPQTGSENDALYEYLRQSVGNEAEIWLGLNGWLEGVGWVDMTGARIAYKNWLDVTKTQPDGGWPFSNENCAVLSGAANGKWFDKRCRDQLPYICQFGIV
notes: on phage
B11: 119p83P1G3 (designed binder)
chain: ALQTVCLKGTKVHMKCFLAFTQTKTFHEASEDCISRGGTLSTPQTGSENDALYEYLRQSVGNEAEIWLGLNGWLEGVGWVDMTGARIAYKNWYVRSEGQPDGGWPFSNENCAVLSGAANGKWFDKRCRDQLPYICQFGIV
notes: on phage
B12: 119p83P1D10 (designed binder)
chain: ALQTVCLKGTKVHMKCFLAFTQTKTFHEASEDCISRGGTLSTPQTGSENDALYEYLRQSVGNEAEIWLGLNGWLEGVGWVDMTGARIAYKNWGRRRNLQPDGGWPFSNENCAVLSGAANGKWFDKRCRDQLPYICQFGIV
notes: on phage
B13: 119p83P1H5 (designed binder)
chain: ALQTVCLKGTKVHMKCFLAFTQTKTFHEASEDCISRGGTLSTPQTGSENDALYEYLRQSVGNEAEIWLGLNGWLEGVGWVDMTGARIAYKNWGTGVMGQPDGGWPFSNENCAVLSGAANGKWFDKRCRDQLPYICQFGIV
notes: on phage
B14: 119p94P1A4 (designed binder)
chain: ALQTVCLKGTKVHMKCFLAFTQTKTFHEASEDCISRGGTLSTPQTGSENDALYEYLRQSVGNEAEIWLGLNGWLEGVGWVDMTGARIAYKNWFAEFFLQPDGGWPFSNENCAVLSGAANGKWFDKRCRDQLPYICQFGIV
notes: on phage
B15: 119p94P1B6 (designed binder)
chain: ALQTVCLKGTKVHMKCFLAFTQTKTFHEASEDCISRGGTLSTPQTGSENDALYEYLRQSVGNEAEIWLGLNGWLEGVGWVDMTGARIAYKNWHPQGDRQPDGGWPFSNENCAVLSGAANGKWFDKRCRDQLPYICQFGIV
notes: on phage
B16: 119p94P1B8 (designed binder)
chain: ALQTVCLKGTKVHMKCFLAFTQTKTFHEASEDCISRGGTLSTPQTGSENDALYEYLRQSVGNEAEIWLGLNGWLEGVGWVDMTGARIAYKNWWSYWDTQPDGGWPFSNENCAVLSGAANGKWFDKRCRDQLPYICQFGIV
notes: on phage
B17: 119p83P1H3 (designed binder)
chain: ALQTVCLKGTKVHMKCFLAFTQTKTFHEASEDCISRGGTLSTPQTGSENDALYEYLRQSVGNEAEIWLGLNGWLEGVGWVDMTGARIAYKNWSEDRPGQPDGGWPFSNENCAVLSGAANGKWFDKRCRDQLPYICQFGIV
notes: on phage
B18: 119p94P1H3 (designed binder)
chain: ALQTVCLKGTKVHMKCFLAFTQTKTFHEASEDCISRGGTLSTPQTGSENDALYEYLRQSVGNEAEIWLGLNGWLEGVGWVDMTGARIAYKNWSLSWHPQPDGGWPFSNENCAVLSGAANGKWFDKRCRDQLPYICQFGIV
notes: on phage
B19: 119p94P1D4 (designed binder)
chain: ALQTVCLKGTKVHMKCFLAFTQTKTFHEASEDCISRGGTLSTPQTGSENDALYEYLRQSVGNEAEIWLGLNGWLEGVGWVDMTGARIAYKNWAAFPVEQPDGGWPFSNENCAVLSGAANGKWFDKRCRDQLPYICQFGIV
notes: on phage
B20: 119p83P1D11 (designed binder)
chain: ALQTVCLKGTKVHMKCFLAFTQTKTFHEASEDCISRGGTLSTPQTGSENDALYEYLRQSVGNEAEIWLGLNGWLEGVGWVDMTGARIAYKNWQVHARSQPDGGWPFSNENCAVLSGAANGKWFDKRCRDQLPYICQFGIV
notes: on phage
B21: 119p83P1C12 (designed binder)
chain: ALQTVCLKGTKVHMKCFLAFTQTKTFHEASEDCISRGGTLSTPQTGSENDALYEYLRQSVGNEAEIWLGLNGWLEGVGWVDMTGARIAYKNWNSNVVLQPDGGWPFSNENCAVLSGAANGKWFDKRCRDQLPYICQFGIV
notes: on phage
B22: 119p83P1H12 (designed binder)
chain: ALQTVCLKGTKVHMKCFLAFTQTKTFHEASEDCISRGGTLSTPQTGSENDALYEYLRQSVGNEAEIWLGLNGWLEGVGWVDMTGARIAYKNWGTHISSQPDGGWPFSNENCAVLSGAANGKWFDKRCRDQLPYICQFGIV
notes: on phage
B23: 119p83P1H7 (designed binder)
chain: ALQTVCLKGTKVHMKCFLAFTQTKTFHEASEDCISRGGTLSTPQTGSENDALYEYLRQSVGNEAEIWLGLNGWLEGVGWVDMTGARIAYKNWVNHGVGQPDGGWPFSNENCAVLSGAANGKWFDKRCRDQLPYICQFGIV
notes: on phage
B24: 119p94P1G1 (designed binder)
chain: ALQTVCLKGTKVHMKCFLAFTQTKTFHEASEDCISRGGTLSTPQTGSENDALYEYLRQSVGNEAEIWLGLNGWLEGVGWVDMTGARIAYKNWGEVIAPQPDGGWPFSNENCAVLSGAANGKWFDKRCRDQLPYICQFGIV
notes: on phage
B25: 119p94P1E7 (designed binder)
chain: ALQTVCLKGTKVHMKCFLAFTQTKTFHEASEDCISRGGTLSTPQTGSENDALYEYLRQSVGNEAEIWLGLNGWLEGVGWVDMTGARIAYKNWIWSRIEQPDGGWPFSNENCAVLSGAANGKWFDKRCRDQLPYICQFGIV
notes: on phage
B26: 119p94P1D11 (designed binder)
chain: ALQTVCLKGTKVHMKCFLAFTQTKTFHEASEDCISRGGTLSTPQTGSENDALYEYLRQSVGNEAEIWLGLNGWLEGVGWVDMTGARIAYKNWGSTGEKQPDGGWPFSNENCAVLSGAANGKWFDKRCRDQLPYICQFGIV
notes: on phage

These binders were tested against T2, recombinant human TRAIL R2 (DR5)/Fc chimera (human, UniProt O14763 54-182) (assay: SPR (Biacore), DR5-Fc captured by anti-Fc, ATRIMER analyte; apparent).
T2 construct: bought (R&D Systems); not shown: Fc of the bought chimera (R&D Systems)
Protocol: Immobilization of an anti-human IgG Fc antibody (Biacore) to the CM5 chip (Biacore) was performed using standard amine coupling chemistry and this surface was used to capture recombinant human DR4 or DR5 receptor Fc fusion protein (R&D Systems). ATRIMER™ dilutions (1-500 nM) were injected over the DR4 and DR5 receptor surface at 30 μl/min and kinetic constants were derived from the sensorgram data using the Biaevaluation software (version 3.1, Biacore). Data collection was 3 minutes for the association and 5 minutes for dissociation. The anti-human IgG surface was regenerated with a 30 s pulse of 3 M magnesium chloride. All sensorgrams were double-referenced against an activated and blocked flow-cell as well as buffer injections.
Work on B1 yielded a Ka of 1.11e+06 M⁻¹, a Kd of 899 nM and a koff of 0.000104 s⁻¹. It also gave a kon of 116 M⁻¹ s⁻¹. Binder B2 has a Ka of 2.38e+07 M⁻¹, a Kd of 42.8 nM and a koff of 0.00184 s⁻¹. The kon was 43800 M⁻¹ s⁻¹.

These binders were tested against T1, recombinant human TRAIL R1 (DR4)/Fc … (assay: phage ELISA on DR4/Fc).
B3: binds. B4: binds. B5: binds. B6: binds. B7: binds. B8: binds. B9: binds. B10: binds. B11: binds. B12: binds. B13: binds. B14: binds. B15: binds. B16: binds. B17: binds. B18: binds. B19: binds. B20: binds. B21: binds. B22: binds. B23: binds. B24: binds. B25: binds. B26: binds.
